This passage reports logFC.mWT.over.Luc results from patent publication US20240368668A1, “SUBSTRATES AND BIOMARKERS OF ADAMTS7” (The Broad Institute, Inc., priority 2021, published 2024).

Square brackets hold non-standard residues; d marks the D form. Ends that are not written are not given here. Met(O) = CS(=O)CC[C@H](N)C(=O)O

The target in the assay is T1, mouse ADAMTS7 (Mus musculus, UniProt Q68SA9).
T1 construct: Full-length mouse Adamts7 1-1857 (Uniprot Q68SA9, WT or E373Q catalytic mutant); expressed in transfected cells; host or cells: Human Coronary Artery Smooth Muscle Cells (HCA-SMC, Lonza), adenovirus 50 MOI
T1 sequence (Q68SA9 221-1657): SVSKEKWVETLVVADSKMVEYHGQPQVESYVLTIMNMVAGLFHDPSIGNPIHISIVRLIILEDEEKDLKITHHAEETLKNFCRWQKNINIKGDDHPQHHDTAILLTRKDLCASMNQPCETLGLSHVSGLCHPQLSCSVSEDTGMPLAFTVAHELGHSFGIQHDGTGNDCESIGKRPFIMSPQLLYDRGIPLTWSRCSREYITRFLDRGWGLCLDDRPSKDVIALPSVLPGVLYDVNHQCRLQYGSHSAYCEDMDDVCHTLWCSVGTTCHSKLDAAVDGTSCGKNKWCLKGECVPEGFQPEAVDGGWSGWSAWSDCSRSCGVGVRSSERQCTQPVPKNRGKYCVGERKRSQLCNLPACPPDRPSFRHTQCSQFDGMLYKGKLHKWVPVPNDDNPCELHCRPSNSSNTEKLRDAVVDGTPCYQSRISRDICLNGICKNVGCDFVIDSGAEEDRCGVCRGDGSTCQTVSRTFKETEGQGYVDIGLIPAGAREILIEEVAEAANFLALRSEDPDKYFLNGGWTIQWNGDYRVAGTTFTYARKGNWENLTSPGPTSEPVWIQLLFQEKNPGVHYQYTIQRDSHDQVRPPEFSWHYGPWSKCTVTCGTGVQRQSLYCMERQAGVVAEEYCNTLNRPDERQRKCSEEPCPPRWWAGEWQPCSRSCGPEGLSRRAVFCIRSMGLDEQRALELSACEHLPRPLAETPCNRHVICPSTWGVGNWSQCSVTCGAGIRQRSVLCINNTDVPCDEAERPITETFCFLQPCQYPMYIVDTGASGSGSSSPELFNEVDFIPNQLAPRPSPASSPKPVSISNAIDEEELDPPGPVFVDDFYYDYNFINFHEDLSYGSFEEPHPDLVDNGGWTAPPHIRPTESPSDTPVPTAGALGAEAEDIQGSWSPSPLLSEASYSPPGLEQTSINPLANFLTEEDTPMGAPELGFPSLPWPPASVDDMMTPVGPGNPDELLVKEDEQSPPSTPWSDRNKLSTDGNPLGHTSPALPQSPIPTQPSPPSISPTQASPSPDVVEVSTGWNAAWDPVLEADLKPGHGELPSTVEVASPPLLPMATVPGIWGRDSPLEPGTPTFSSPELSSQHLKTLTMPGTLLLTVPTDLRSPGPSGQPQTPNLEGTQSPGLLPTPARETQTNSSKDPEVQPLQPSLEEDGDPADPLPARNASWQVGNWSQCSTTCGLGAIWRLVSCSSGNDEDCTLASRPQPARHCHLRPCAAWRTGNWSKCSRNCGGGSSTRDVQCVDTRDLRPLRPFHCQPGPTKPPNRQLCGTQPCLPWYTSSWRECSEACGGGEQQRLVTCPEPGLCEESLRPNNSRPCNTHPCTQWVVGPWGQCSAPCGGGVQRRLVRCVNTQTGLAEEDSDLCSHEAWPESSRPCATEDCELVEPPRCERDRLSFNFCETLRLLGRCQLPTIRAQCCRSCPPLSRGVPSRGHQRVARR
Put plainly: TMT10 TAILS N-terminomics, HUVEC experiment (process replicates, trypsin/AspN digest). It is filed as cell-based, human. The note with it: HUVEC TAILS HC; log fold change of N-terminal peptide, Ad-mADAMTS7 WT over Luc. The gist of the method: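 Full-length mouse ADAMTS7 (WT or E373Q mutant, C-terminal 3xFLAG) or luciferase was transduced via adenovirus, 50 MOI, into HCA-SMC (SMC1, SMC2) or HUVEC. SMC1: pooled media, technical triplicates 400 ug; SMC2: process triplicates 300 ug; HUVEC: process triplicates 200 ug, bFGF2 10 ng/ml.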
Take “ASMT_321 (LSSAGFR; listed as Homo sapiens)”: the logFC.mWT.over.Luc came out at 2.18.
“BICD1_280 (NNDDKMNGHIHGPLVKLNGDYR; listed as Homo sapiens)”: the logFC.mWT.over.Luc was found to be 1.23.
In the case of “CLU_267 (FQHPPTEFIR; listed as Homo sapiens)” it was 1.56.
The figure for “CTGF_173 (TVVGPALAAYR; listed as Homo sapiens)” is 2.94; for “CTGF_174 (VVGPALAAYR; listed as Homo sapiens)” it is 2.13; for “FN1_1624 (LVQTAVTTIPAPT; listed as Homo sapiens)” it is 1.40.
As for “FN1_1743 (WESPQGQVSR; listed as Homo sapiens)”, the logFC.mWT.over.Luc was 2.86.
The figure for “LTBP2_129 (QQQPAPR; listed as Homo sapiens)” is 4.83.
The figure for “LTBP2_253 (GEGTLAR; listed as Homo sapiens)” is 2.90; for “LTBP3_164 (LSTGALPPLAPEG; listed as Homo sapiens)” it is 1.82.
The figure for “LTBP3_205 (HAAFLVPLGPGQISA; listed as Homo sapiens)” is 2.41; for “LTBP3_221 (VQAPPPVVNVR; listed as Homo sapiens)” it is 2.72; for “MCFD2_55 (HLEGVINKPEA; listed as Homo sapiens)” it is 1.13.
In turn, “PSAP_301 (LVEPIKKH; listed as Homo sapiens)” returned a logFC.mWT.over.Luc of 2.38.
In the case of “PTBP1_376 (AAAAAGR; listed as Homo sapiens)” it was 1.11; in that of “PZP_578 (HAHLQVAAAPQSLCALR; listed as Homo sapiens)”, 2.11.
In the case of “THBS1_630 (FGQGVEHATANK; listed as Homo sapiens)” it was 2.27.
For “UQCRH_76 (HGSPNNSERAMRAVGE[Met(O)]CKGPGAAR; listed as Homo sapiens)”, the logFC.mWT.over.Luc is 1.39.
In the case of “ZYX_244 (PVSLANTQPR; listed as Homo sapiens)” it was 1.20.
